Results on six molecules are retold here after patent publication US20220403009A1 (IGM BIOSCIENCES, published 2022).

Values joined by “and” are separate entries in the source; they are usually repeats but may differ in a detail not shown here. Equal values may be shown once. Read-outs that look alike come from different tables or passages of the source.

Test [1] addresses T1, SARS-CoV-2 RBD K417E (SARS-CoV-2, UniProt P0DTC2 319-541). The test is described as follows: BLI, blocking of ACE2-Fc binding to RBD.
Test [2] concerns the target T2, SARS-CoV-2 RBD Y453F (SARS-CoV-2, UniProt P0DTC2 319-541). The test is described as follows: BLI, blocking of ACE2-Fc binding to RBD. (BLI is a label-free optical method that tracks binding on a fibre tip over time.)
Test [3] deals with T3, SARS-CoV-2 RBD E484K (SARS-CoV-2, UniProt P0DTC2 319-541). The test is described as follows: BLI, blocking of ACE2-Fc binding to RBD.
The target of test [4] is T4, SARS-CoV-2 RBD G446V (SARS-CoV-2, UniProt P0DTC2 319-541). The test is described as follows: BLI, blocking of ACE2-Fc binding to RBD.
Test [5] has as its target T1, SARS-CoV-2 RBD K417E. As to the kind of experiment: BLI, RBD on anti-Penta-His sensor.
In test [6] the target is T2, SARS-CoV-2 RBD Y453F. The test is described as follows: BLI, RBD on anti-Penta-His sensor.
The target in test [7] is T3, SARS-CoV-2 RBD E484K. The test is described as follows: BLI, RBD on anti-Penta-His sensor.
Test [8] concerns the target T4, SARS-CoV-2 RBD G446V. As to the kind of experiment: BLI, RBD on anti-Penta-His sensor.
Test [9] addresses T1, SARS-CoV-2 RBD K417E. As to the kind of experiment: BLI, blocking of ACE2-Fc binding to RBD. The source holds these as a separate data set.
Test [10] deals with T2, SARS-CoV-2 RBD Y453F. As to the kind of experiment: BLI, blocking of ACE2-Fc binding to RBD. The source holds these as a separate data set.
Test [11] addresses T3, SARS-CoV-2 RBD E484K. The test is described as follows: BLI, blocking of ACE2-Fc binding to RBD. This is another data set of the same source.
The target of test [12] is T4, SARS-CoV-2 RBD G446V. The test is described as follows: BLI, blocking of ACE2-Fc binding to RBD. The source holds these as a separate data set.
Test [13] has as its target T1, SARS-CoV-2 RBD K417E. As to the kind of experiment: BLI, RBD on anti-Penta-His sensor. The source holds these as a separate data set.
Test [14] addresses T2, SARS-CoV-2 RBD Y453F. The test is described as follows: BLI, RBD on anti-Penta-His sensor. The source holds these as a separate data set.
Test [15] concerns the target T3, SARS-CoV-2 RBD E484K. The test is described as follows: BLI, RBD on anti-Penta-His sensor. This is another data set of the same source.
For test [16], the target named is T4, SARS-CoV-2 RBD G446V. As to the kind of experiment: BLI, RBD on anti-Penta-His sensor. This is another data set of the same source.
The target in test [17] is T1, SARS-CoV-2 RBD K417E. As to the kind of experiment: BLI, blocking of ACE2-Fc binding to RBD. This is another data set of the same source.
The target in test [18] is T2, SARS-CoV-2 RBD Y453F. As to the kind of experiment: BLI, blocking of ACE2-Fc binding to RBD. The source holds these as a separate data set.
Test [19] has as its target T3, SARS-CoV-2 RBD E484K. The test is described as follows: BLI, blocking of ACE2-Fc binding to RBD. The source holds these as a separate data set.
Test [20] concerns the target T4, SARS-CoV-2 RBD G446V. The test is described as follows: BLI, blocking of ACE2-Fc binding to RBD. This is another data set of the same source.
Test [21] has as its target T1, SARS-CoV-2 RBD K417E. The test is described as follows: BLI, RBD on anti-Penta-His sensor. This is another data set of the same source.
In test [22] the target is T2, SARS-CoV-2 RBD Y453F. The test is described as follows: BLI, RBD on anti-Penta-His sensor. This is another data set of the same source.
Test [23] has as its target T3, SARS-CoV-2 RBD E484K. The test is described as follows: BLI, RBD on anti-Penta-His sensor. This is another data set of the same source.
Test [24] deals with T4, SARS-CoV-2 RBD G446V. As to the kind of experiment: BLI, RBD on anti-Penta-His sensor. This is another data set of the same source.

B1: Ab8 IgM (antibody)
VH: EVQLVESGGGLIQPGGSLRLSCAASGFTVSRNYMNWVRQAPGKGLEWVSVIYSGGSTFYADSVKGRFTISRDNSKNTLYLQMNSLRAEDTAVYYCARDASSYGIDWGQGTLVTVSS
VL: not shown
chain: not shown
B1: the IC50 in the test with SARS-CoV-2 RBD K417E [1] was 1 µg/mL and 1.2 nM; in the test with SARS-CoV-2 RBD Y453F [2], 0.98 µg/mL and 1.1 nM; with SARS-CoV-2 RBD E484K [3], 1.3 µg/mL and 1.5 nM; in the test with SARS-CoV-2 RBD G446V [4] it was 0.78 µg/mL and 0.9 nM. The Kd in the test with SARS-CoV-2 RBD K417E [5], with SARS-CoV-2 RBD Y453F [6], with SARS-CoV-2 RBD E484K [7] and with SARS-CoV-2 RBD G446V [8] was below 1 pM each time.

B2: Ab8 IgG (antibody, V domains shown)
VH: B1 VH
VL: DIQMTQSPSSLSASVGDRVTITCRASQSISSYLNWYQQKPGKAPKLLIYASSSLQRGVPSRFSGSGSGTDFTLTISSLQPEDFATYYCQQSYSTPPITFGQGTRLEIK
B2: the half-maximal inhibitory concentration (IC50) with SARS-CoV-2 RBD K417E [1] is 1 µg/mL and 7.2 nM; with SARS-CoV-2 RBD Y453F [2], 1 µg/mL and 7.2 nM; in the test with SARS-CoV-2 RBD E484K [3], 2.8 µg/mL and 19 nM; with SARS-CoV-2 RBD G446V [4], 0.88 µg/mL and 6.1 nM. For the same molecule, the equilibrium dissociation constant (Kd) in the test with SARS-CoV-2 RBD K417E [5] was 2000 pM; with SARS-CoV-2 RBD Y453F [6], below 1 pM; in the test with SARS-CoV-2 RBD E484K [7], below 1 pM; with SARS-CoV-2 RBD G446V [8] it was below 1 pM.

B3: Ab10 IgM (antibody)
VH: QITLKESGPTLVKPTQTLTLTCTFSGFSLSTSGVGVGWIRQPPGKALEWLALIYWDDDKRYSPSLKSRLTITKDTSKNQVVLTMTNMDPVDTATYYCAHHKIERIFDYWGQGTLVTVSS
VL: QSALAQPASVSGSPGQSITISCTGTSSDVGAYNYVSWYQQHPGKAPKLMIYDVSKRPSGVSNRFSGSKSGNTASLTISGLQAEDEADYYCSSYTTSSTVFGGGTKLTVL
chain: not shown
B3: the IC50 was 0.32 nM and 0.28 µg/mL with SARS-CoV-2 RBD K417E [9]; 0.49 nM and 0.42 µg/mL with SARS-CoV-2 RBD Y453F [10]; 0.47 nM and 0.41 µg/mL with SARS-CoV-2 RBD E484K [11]; 5 nM and 4.3 µg/mL with SARS-CoV-2 RBD G446V [12]. Moreover, the Kd with SARS-CoV-2 RBD K417E [13] was below 1 pM; with SARS-CoV-2 RBD Y453F [14] it was below 1 pM; with SARS-CoV-2 RBD E484K [15], below 1 pM; in the test with SARS-CoV-2 RBD G446V [16] it was 110 pM.

B4: Ab10 IgG (antibody, V domains shown)
VH: B3 VH
VL: B3 VL
Take B4: the IC50 with SARS-CoV-2 RBD K417E [9] is 3.8 nM and 0.55 µg/mL; in the test with SARS-CoV-2 RBD Y453F [10], 8.6 nM and 1.2 µg/mL; with SARS-CoV-2 RBD E484K [11], 10 nM and 1.5 µg/mL; with SARS-CoV-2 RBD G446V [12], > 69 nM and > 10 µg/mL. Besides, the Kd with SARS-CoV-2 RBD K417E [13] is below 1 pM; in the test with SARS-CoV-2 RBD Y453F [14], below 1 pM; with SARS-CoV-2 RBD E484K [15], below 1 pM; with SARS-CoV-2 RBD G446V [16] it was 120000 pM.

B5: Ab7 IgM (antibody)
VH: EVQLVESGGGLVQPGGSLRLSCAVSGFTVSSNYMSWVRQAPGKGLEWVSVIYTGGGTYYADSVKGRFTISRDNSKNTLYLQMNTLRAEDTTVYYCARGDGSYYRAFDYWGQGTLVTVSS
VL: DIQMTQSPSSLSASVGDRVTITCRASQSISNYLNWYHQKPGKAPKLLIYAASSLQSGVPSRFSGSGSGTDFTLTISSLQPEDFATYYCQQSYSPPPTFGPGTKVEIK
chain: not shown
As to B5, the IC50 with SARS-CoV-2 RBD K417E [17] was 0.36 nM and 0.31 µg/mL; with SARS-CoV-2 RBD Y453F [18] it was 0.42 nM and 0.36 µg/mL; in the test with SARS-CoV-2 RBD E484K [19], 0.87 nM and 0.76 µg/mL; with SARS-CoV-2 RBD G446V [20], 0.32 nM and 0.28 µg/mL. For the same molecule, the Kd with SARS-CoV-2 RBD K417E [21] is below 1 pM; with SARS-CoV-2 RBD Y453F [22], below 1 pM; with SARS-CoV-2 RBD E484K [23], 7 pM; with SARS-CoV-2 RBD G446V [24], below 1 pM.

B6: Ab7 IgG (antibody, V domains shown)
VH: B5 VH
VL: B5 VL
On to B6, for which the IC50 in the test with SARS-CoV-2 RBD K417E [17] is 2.4 nM and 0.35 µg/mL; in the test with SARS-CoV-2 RBD Y453F [18] it was 3.2 nM and 0.46 µg/mL; in the test with SARS-CoV-2 RBD E484K [19], > 69 nM and > 10 µg/mL; in the test with SARS-CoV-2 RBD G446V [20], 2.1 nM and 0.3 µg/mL. Moreover, the Kd with SARS-CoV-2 RBD K417E [21], with SARS-CoV-2 RBD Y453F [22] and with SARS-CoV-2 RBD G446V [24] was below 1 pM each time.

Usually IC50 stands for the concentration at which inhibition is half-maximal. A lower IC50 goes with greater potency. Usually Kd stands for the concentration at which binding is half-saturated. A low value points to tighter binding.
